Data on one substance can be found in publication PMC8812994.

For this assay, the target named is rMjShoc2 (recombinant MjShoc2) (Marsupenaeus japonicus). Kind of assay: ITC; MICROCAL PEAQ-ITC; rFlaA (2 mM) in the syringe, rMjShoc2 (0.2 mM) in the cell; 2 μl injections, 25°C; one set of sites model. On the technique in general: Isothermal titration calorimetry measures the heat released or taken up as one component is titrated into another.

pKd: −log10 of the molar value.

For orientation: pKd means −log10 of the Kd, conventionally taken in molar units. As for “rFlaA (recombinant FlaA of the ITC assay) (from UniProt Q60246 1-379) (natural protein)”, the pKd is 5.00.
